The source of these data is US20110166062A1 (INDIANA UNIVERSITY RESEARCH AND TECHNOLOGY, published 2011).

*1 amine or outer side, *2 acyl side, *3 side chain or, on linkers, in order; H or OH if unused. Where no end group is shown, it is not given here. Side-chain parts run from the residue outwards. [ ]: non-standard residue; d: D form. The star is where a group is joined. γGlu = O=C(O)[C@H](CCC(=O)[*:2])N[*:1]; Palmitoyl = CCCCCCCCCCCCCCCC(=O)*; Aib = CC(C)(N)C(=O)O

Assay in all cases: cell-based or functional assay
Assay [1] addresses T1, GLP-1 receptor (UniProt P43220 24-463, limits assumed).
The target of assay [2] is T2, GIP receptor (UniProt P48546 22-466).
T2 sequence (looked up): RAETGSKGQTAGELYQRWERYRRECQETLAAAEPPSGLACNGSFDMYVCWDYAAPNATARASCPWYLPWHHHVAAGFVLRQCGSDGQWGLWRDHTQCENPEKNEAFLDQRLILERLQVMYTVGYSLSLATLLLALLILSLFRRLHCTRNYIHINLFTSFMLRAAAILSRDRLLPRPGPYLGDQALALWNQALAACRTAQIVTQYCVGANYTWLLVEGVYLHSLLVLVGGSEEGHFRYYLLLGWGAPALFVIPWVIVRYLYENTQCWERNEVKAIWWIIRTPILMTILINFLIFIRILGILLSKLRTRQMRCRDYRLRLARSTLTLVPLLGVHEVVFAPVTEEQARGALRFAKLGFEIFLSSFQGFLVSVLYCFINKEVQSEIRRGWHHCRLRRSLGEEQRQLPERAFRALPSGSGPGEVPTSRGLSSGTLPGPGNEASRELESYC

The target in assay [3] is T3, glucagon receptor (UniProt P47871 26-477, limits assumed).
Assay [4] has as its target T1, GLP-1 receptor. This is another data set of the same source.
In assay [5] the target is T2, GIP receptor. The source holds these as a separate data set.
Assay [6] deals with T3, glucagon receptor. This is another data set of the same source.

T3 sequence (P47871 26-477 limits assumed): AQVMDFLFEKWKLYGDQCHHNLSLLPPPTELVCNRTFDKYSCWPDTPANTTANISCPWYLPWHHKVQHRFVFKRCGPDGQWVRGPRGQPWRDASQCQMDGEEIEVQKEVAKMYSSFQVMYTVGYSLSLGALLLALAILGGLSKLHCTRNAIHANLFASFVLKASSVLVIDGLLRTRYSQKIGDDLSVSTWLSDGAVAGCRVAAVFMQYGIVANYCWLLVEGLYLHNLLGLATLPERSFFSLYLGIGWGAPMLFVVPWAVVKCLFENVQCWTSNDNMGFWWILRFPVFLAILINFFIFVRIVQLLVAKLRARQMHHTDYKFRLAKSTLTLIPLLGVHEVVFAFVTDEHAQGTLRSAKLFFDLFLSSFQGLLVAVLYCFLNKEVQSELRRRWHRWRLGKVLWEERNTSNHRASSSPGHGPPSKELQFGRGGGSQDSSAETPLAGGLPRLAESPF

B1: mt-369 (peptide)
peptide: Y[Aib]EGTFTSDK([γGlu-γGlu-Palmitoyl])SIYLDKQAA[Aib]EFVNWLLAGGPSSGAPPPSK-NH2
modifications: N-terminus assumed
SMILES: CCCCCCCCCCCCCCCC(=O)N[C@@H](CCC(=O)N[C@@H](CCC(=O)NCCCC[C@H](NC(=O)[C@H](CC(=O)O)NC(=O)[C@H](CO)NC(=O)[C@@H](NC(=O)[C@H](Cc1ccccc1)NC(=O)[C@@H](NC(=O)CNC(=O)[C@H](CCC(=O)O)NC(=O)C(C)(C)NC(=O)[C@@H](N)Cc1ccc(O)cc1)[C@@H](C)O)[C@@H](C)O)C(=O)N[C@@H](CO)C(=O)N[C@H](C(=O)N[C@@H](Cc1ccc(O)cc1)C(=O)N[C@@H](CC(C)C)C(=O)N[C@@H](CC(=O)O)C(=O)N[C@@H](CCCCN)C(=O)N[C@@H](CCC(N)=O)C(=O)N[C@@H](C)C(=O)N[C@@H](C)C(=O)NC(C)(C)C(=O)N[C@@H](CCC(=O)O)C(=O)N[C@@H](Cc1ccccc1)C(=O)N[C@H](C(=O)N[C@@H](CC(N)=O)C(=O)N[C@@H](Cc1c[nH]c2ccccc12)C(=O)N[C@@H](CC(C)C)C(=O)N[C@@H](CC(C)C)C(=O)N[C@@H](C)C(=O)NCC(=O)NCC(=O)N1CCC[C@H]1C(=O)N[C@@H](CO)C(=O)N[C@@H](CO)C(=O)NCC(=O)N[C@@H](C)C(=O)N1CCC[C@H]1C(=O)N1CCC[C@H]1C(=O)N1CCC[C@H]1C(=O)N[C@@H](CO)C(=O)N[C@@H](CCCCN)C(N)=O)C(C)C)[C@@H](C)CC)C(=O)O)C(=O)O
Turning to B1, the “% Relative activity at the Receptor for GLP-1” value in the assay with GLP-1 receptor [1] came to 385%. In addition, the “% Relative activity at the Receptor for GIP” value in the assay with GIP receptor [2] came out at 204%. The “% Relative activity at the Receptor for Glucagon” value with glucagon receptor [3] is 1.54%. For the same molecule, in the assay with GLP-1 receptor [4], the “EC50, nM; GLP-1 Receptor” value stood at 0.0041 nM and the “relative activity; GLP-1 Receptor” value is 385%. In the assay with GIP receptor [5], the “EC50, nM; GIP Receptor” value is 0.0014 nM and the “relative activity; GIP Receptor” value was determined as 204%. Also, in the assay with glucagon receptor [6], the “EC50, nM; Glucagon Receptor” value worked out at 2.19 nM and the “relative activity; Glucagon Receptor” value was found to be 1.54%.

B2: mt-368 (peptide)
peptide: Y[Aib]QGTFTSDYSIYLDKQAA[Aib]EFVNWLLAGGPSSGAPPPSK([γGlu-γGlu-Palmitoyl])-NH2
modifications: N-terminus assumed
SMILES: CCCCCCCCCCCCCCCC(=O)N[C@@H](CCC(=O)N[C@@H](CCC(=O)NCCCC[C@H](NC(=O)[C@H](CO)NC(=O)[C@@H]1CCCN1C(=O)[C@@H]1CCCN1C(=O)[C@@H]1CCCN1C(=O)[C@H](C)NC(=O)CNC(=O)[C@H](CO)NC(=O)[C@H](CO)NC(=O)[C@@H]1CCCN1C(=O)CNC(=O)CNC(=O)[C@H](C)NC(=O)[C@H](CC(C)C)NC(=O)[C@H](CC(C)C)NC(=O)[C@H](Cc1c[nH]c2ccccc12)NC(=O)[C@H](CC(N)=O)NC(=O)[C@@H](NC(=O)[C@H](Cc1ccccc1)NC(=O)[C@H](CCC(=O)O)NC(=O)C(C)(C)NC(=O)[C@H](C)NC(=O)[C@H](C)NC(=O)[C@H](CCC(N)=O)NC(=O)[C@H](CCCCN)NC(=O)[C@H](CC(=O)O)NC(=O)[C@H](CC(C)C)NC(=O)[C@H](Cc1ccc(O)cc1)NC(=O)[C@@H](NC(=O)[C@H](CO)NC(=O)[C@H](Cc1ccc(O)cc1)NC(=O)[C@H](CC(=O)O)NC(=O)[C@H](CO)NC(=O)[C@@H](NC(=O)[C@H](Cc1ccccc1)NC(=O)[C@@H](NC(=O)CNC(=O)[C@H](CCC(N)=O)NC(=O)C(C)(C)NC(=O)[C@@H](N)Cc1ccc(O)cc1)[C@@H](C)O)[C@@H](C)O)[C@@H](C)CC)C(C)C)C(N)=O)C(=O)O)C(=O)O
Regarding B2, the “% Relative activity at the Receptor for GLP-1” value with GLP-1 receptor [1] turned out to be 419%. Also, the “% Relative activity at the Receptor for GIP” value with GIP receptor [2] was 296%. For the same molecule, the “% Relative activity at the Receptor for Glucagon” value with glucagon receptor [3] was found to be 492%. Moreover, in the assay with GLP-1 receptor [4], the “EC50, nM; GLP-1 Receptor” value was found to be 0.0038 nM and the “relative activity; GLP-1 Receptor” value turned out to be 419%. Also, in the assay with GIP receptor [5], the “EC50, nM; GIP Receptor” value came to 0.00097 nM and the “relative activity; GIP Receptor” value was 296%. In addition, in the assay with glucagon receptor [6], the “EC50, nM; Glucagon Receptor” value stood at 0.0069 nM and the “relative activity; Glucagon Receptor” value is 492%.
